Results as given in US20090041794A1 (IMMATICS BIOTECHNOLOGIES, published 2009).

B1: iLR1 59-68 (LLAARAIVAI) (peptide)
peptide: LLAARAIVAI
notes: Synthetic peptide bought from Biosynthan, more than 90% purity; also called RPS-001
B2: iLR2 146-154 (ALCNTDSPL) (peptide)
peptide: ALCNTDSPL
notes: Synthetic peptide bought from Biosynthan, more than 90% purity; also called RPS-002

Biological target: T1, HLA-A*0201 molecule on TAP-deficient T2 cells (human)
T1 construct: also called HLA-A2
Test: in vitro reconstitution (T2 whole cell-binding) assay on TAP-deficient T2 cells, compared with the Flu reference peptide

Binder	binding result
B1	binds
B2	binds
